Experimental data reported in the DeepSol protein solubility set.

Experiment: soluble on expression in E. coli; label from the status in PepcDB or PDB records

Row | Sequence | soluble on expression in E. coli
1 | MGSDKIHHHHHHMLDSPLSLLAGVGAEIAAGNLIPFLGPDVLTIEAEPPVPVGARTLSLALASKVGVPGRIKNNLWHSAQYIETHKHRVTLDKLMAAFFQPIPEPNALHRWLAGLPKLPMVVDTWYDGAMKAAFEAVGRESWGIVQGCSKARRLDGGVWFRAVSPDGAIVAEDVAESWRTVLYKPHGAAQPTGDVLVSDSDYVEVLTDIDIGTPIPQLVKDRRSNRGFVFLGCRFYDQILRTFARQISKRCGGPRYAVVPEELTRNELKFLEVEGITPITMPLAEAVALMTAAKTA | not soluble
2 | MGSDKIHHHHHHMINRSLGISCGLVIVLAGCSETTTKDSSKTVPKTSETVKSDIIFKNLRTPWNIEKNQEVFYITEREGTIVKGTEGNYSRTDLELTEPVVAQGEGGLLGMALDPDFSKNRTAYVYHTYEKDGALWNRIIAIKEEKESWKEQRVLLDKIPGATIHNGGRIEIGPDGLLYVTAGDAAVPENAQKLSSLSGKILRMKLDGKPADGNVKEYIYSYGHRNPQGLVFVDQTLYATEHGQNGHDEINRIEQKNYGWPLIEGTEKQQGLVTPWYEVGEKSIAPSGVAEQNGKLYFGTLVGQSLRSIETESSKVEQIVTDRGRIRDVMTDGKELYYVTNNTDGRGNSSDEDDVLVRLKP | not soluble
3 | MWTNTFQEGLKIVGENISLSLPDGRQELFRLTDGAISSDATTGTLSKDQAGWRYDYRDGTSSLFDVQGRLIQRKVRGQVITITYPNLSTTKAKDGFGNTLTVSWNATKQPYLVDYNGSLKVEYLYDGGARLVSKKTTSQGLNRTRKYLYADSGNAGLMVGIIDEQGTRYATWTYDNQGRAISSEHANGAEKVSLAYNDDGSTTVTNEYGKQATYRFQVIQGIKRIVAIEGQPSPNCPSSNSTFTYDDQGLLTSKRDNNGNLTTYQYNARGLETSRTEAAGTAQARTITTDWHPTLFLPVQVSEPGRITRYQYDAEGRKTGETVTTR | not soluble
4 | MSESQLRKGAVELIVLGLLSSRPSYGGQLVERFREEAGLEISTGTLYPLLARLRKSGLVVTAWEESPVGPPRKIYKLAKPGKNRLLQMRREWEALDCAVKRTTQKGIR | not soluble
5 | MAVSNIWQSYSSSNLHWIYPLYTNNCSQNVKSSFTAEILLKRRCNDIQDILNDRMIELLLQGACDPNKQQNYLQGMSPSRKKKTHVKKFLKKQKKSRKPITLEHGCLSGPVTLRFGNFAGIRDLRGTRCPLHGIKHGVHPKPGERCACQQATLFPSPLARFSCDQSAVLGCAASSTRVYDSIADEFSSLYF | not soluble
6 | MGSDKIHHHHHHADSPDAFVPPTRLTRIAFDRRSAAFGQLDFLLGEIGRRMQERMEVVRLTPQRALDIGCGHGQGLAGLRARFPDAQIAGLDISGVMLAEAGQRDPQRRPGWVGRLLGKRPLFDLVQGDLATLPFAPGSFDLLWSNLALHWHPEPHRVFPEWHRVTRDDGLVMFSLFGPDTLRELRTAFEEVDTATHTLRFVDMHDIGDMLVHGGWSTPVMDMETLTVTYESPEMLLREVQAFGGLRAHPALRRAGLHGRRWHQAVCAALERLRNADGVIPLTFEIVYGHAWKLPPRGAQQVDELGRAVVPLDKIGRARPRR | not soluble
7 | MQSTATYGSTISSGTSRTLKITEIGGSNLTSGMSPFGGHAASAIRESRTREKKEMSELNDRLASYIEKVRFLEAQNRKMEKDLNLLRGKWGHDSTSVKVMYETELRSAKDLIADSDKERAQLEDQIKKLVEELNNYRNKLHEAERGADVTRKELDNVLGRLGALEAEIELLKRRISLMEESIGHLKRENHRMIDSLHHARIFQAVEQETLNRIDYQNQVQTLLEECDFIRRIHDSEIHDLLAMASRDTTVENREYFKNELSSAIREIRSEYDHVSNTTRTDIESWYKLKVQEIHTQNSRNCLEQNYAREEVKRLRTTLGDMRGKMADLEGRNLLLEKQIEDLNYQMEEDMRSYEQSLNDKDTSINKLRDESKILMVELQMLIDTKQTLDAEIVIYRKMLDGEENRAGLRQLVEQVVKTTSIHQTKEIESLRVLKGETTSHSSYSRSAKGNIAIQEAEPSGKYIVLENISRRDENIGDWKLRRKIAGKREIVFTFPREFTLRAQKSVKIFARGQGVHSPPDSLVYDLEDSFGTGNDVVTTLYNKEGEDRASHSQRASHT | not soluble
8 | MSERMWGFGLTEEEASRSIREKMSINDSPTHGHDIHVTRDLVKHHLSKSDMLTDPSQEVLEERTRIQFIRWSHTRIFQVPSEVMDDVMQERIDQVRRSVSHLMCDSYNDPSFRTSCSEC | not soluble
9 | SRIVAPPKNYPDSSQHEWVSLTRISKNMQLAVIATEDQKFPHHYGVDFESLFDVISEAGDHGPSRGASTITQQAAKNVFLFPSHSYVRKAYELYFALLMELMWSKERILEVYLNVVEFGPGIYGAEAAAQNYFGVSAKQLSKWQAARLAVVLPNPYRIKVYPQSDYTARRTRWAMNQMSNLGSVQL | not soluble
10 | SKDIDMGKEYIIPSPGYRSDRDRSAVPGQHRDPEEPRFRRTRSLECQDALETAARVEGLSLDISVHSHLQILDEEHSKGKYHHGLSVLKPFRTTTKHQHPVDNAGLFSYMTFSWLSPLARVVHKKGELLMEDVWPLSKYESSDVNSRRLERLWQEELNEVGPDAASLRRVVWIFCRTRLILSIVCLMITQLAGFSGPNFQDGCILRSE | soluble
11 | MSDPADVFDLVGLTEYEATALEQLLSLGRTTAPNLAEASGIPKARVYGVLESLSDRGFIKLIPGRPKEYQPKSPSDILDRAVENRKQSYESFAADMDSYRDAFLAEYEPRFERANEDISPTAELFHVVDVGEPSERETRRLYDDADETLRVITNSFAYLDNVERALAETLDRGVEVNVLFLHPDALPPEKAAVQADIVDRLTAEYPAIDLRFSTEKLPWRGTLVDPSMDYDSGEAILLVEEPDVPNHMRQAAITDNGSFVAGMKRYFDLVWEYESVQRSN | not soluble
12 | DNDSAPKEPTGPVTLIFTDIESSTALWAAHPDLMPDAVATHHRLIRSLITRYECYEVKTVGDSFMIASKSPFAAVQLAQELQLCFLRLDWETNAVDESYREFEEQRAEGECEYTPPTASLDPEVYSRLWNGLRVRVGIHTGLCDIRYDEVTKGYDYYGRTSNMAARTESVANGGQVLMTHAAYMSLSGEDRNQLDVTTLGATVLRGVPEPVRMYQLNAVPGRNFAALRLDR | soluble
13 | MGSQAAHMMSMDFEDFPVESAHRILTPRPTVMVTTVDEEGNINAAPFSFTMPVSIDPPVVAFASAPDHHTARNIESTHEFVINITPADIIERMWVTARDIPAGENELEAAGLAWTSSRRVKPPRIVEAPGHLECELLRMFEVGDHNLITGSVVSASVRSGAVKEGLLDVESVKPVLHVGGNKFVVGDHVRHVE | soluble
14 | MAHHHHHHMLSRVAAVKAPRTHNRRRVTGSSGRTREGGESEPRRPNMSRRVFPSAVLLLLVTMMCCDRGAATAQVEKATDASTPSGSALTGAITAEGSASGGVERPQRVDLFVPQTKQVLQKTGTDSGRRDSFVSPSLVSAGGVIAAFAEGHINAKNPIPNQLSRLLMLLRSTSTLRGNGPLLLKRSIKKEWSARTVLGKAEGNESFDVVRHPTTTMKGNKMFLLAGSTALSDLNGSWKEGSLEIKLVVGEVTKPTDSEQSKRIEWGEIKSPLNGSTLAAHKGNLTECLASGGSGVLMEDGTLVFSLMAVNEKNDGVYSMIIYSKDNGSTWALSEDISPAKCLNPRITEWEGSLLMIVDCENDQRV | not soluble
15 | SKFGKSLSNQIEQTLPEWQDKFLSYKELKKRLKLIGSKTADRPVKRLRLDEFSVGISKEEINFIQLLEDELEKFNNFFVEKEEEYIIRLKEFRDRIAKAKDSMEKMIKIRKEIVDFHGEMVLLENYSALNYTGLVKILKKYDKRTGDLMRLPFIQKVLQQPFYTTDLLFKLVKESEAMLDQIFPANETESEIIQAELSEHKFMESLHMKSTIAALRVLKEIRSGSSTVSVFSLPPLQLNGLDETWKKIPLLEQEAK | soluble
16 | MDHFIKLLPKLTPHLRKGDCGKMGVIGGSLEYTGAPYFAASSASRLGADLIHIFCDPDAAQVIKGYSPDLIVHPGMTANSIIPKLSRMDAIVIGPGLGRNPNIWPLMQELFEFVRNRDVPFVIDGDGLWFVSEHIEKFPRQMSATVLTPNIVEFSRLCKSALGEEDVLNVRNNSQLQHLAAELSRKMNVTIYLKGEVDLVVTPNGEVSKCSTESSLRRCGGQGDVTAGSLGLFLYWAKKNLGDDWTSAHHEAGIASSWLVRTAGRRAFEKHGRSMNTPLLLDEIPKLVRDVETREMKDTVHTDSSKH | not soluble
17 | MGSDKIHHHHHHQPSSNRYARVDAAILSIPDEYTKKVDTFAEYINRKFKGDEAKMRAIYVWMTHRMAYNVFTTFTSRNEVYSEEKEVQETLSTRKGVCRQFALLFKTLAGKVGIKAYLIDGYGKSGNVVLPEVHEWCVAQVNGEWYFFDPTYDTGYIEDYRFVSAPDDVYFKQLPERFIQTHMPFDPLWQFLKRPYSYSEFEKGVLESGRNVPFFCWQDSLKVYDRQSWVEQLEAARSRILANGKGNDLVDYFLQLNQANTQVGKDSEAIDVYAAATDLQNRAVDSINVFIRYRKAGFRPRKAEAQVRRMIEVSEELTLRADSLINSVHTISPQYKQALLNLRESIMDLAMQIYKHKLFLERYYATKPSLRGNLLRR | not soluble
18 | MSLTITRIETIPMVAPLAREFRGSHYHMTHRATIVTRVHTDAGIIGEAYTGDEHETMFDIDRIIHEELAPTLIGQDAMAIERLWDSGYKVTFDILRDRRLGLVALAAVNTAIWDAVGKALKMPLWKLWGGYRNELPMIAIGGYYGEPLGSIADEMHNYQELGLAGVKFKVGGLSAAEDAARITAAREAAGDDFIICIDANQGYKPAVAVDLSRRIADLNIRWFEEPVEWHNDKRSMRDVRYQGSVPVCAGQTEFSASGCRDLMETGAIDVCNFDSSWSGGPTAWLRTAAIATSYDVQMGHHEEPQVSTHLLASQPHGTIAECFHPDRDPFWWNMITNRPKLNNGTLTLSDRPGLGWDLNWDYIDQYRVSKDEGHHHHHH | soluble
19 | MSGEPELIELRELAPAGRAGKGRTRLERANALRIARGTACNPTRQLVPGRGHRFQPAGPATHTWCDLCGDFIWGVVRKGLQCARLSADCKFTCHYRCRALVCLDCCGPRDLGWEPAVERDTNVDEPVEWETPDLSQAEIEQKIKEYNAQINSNLFMSLNKDGSYTGFIKVQLKLVRPVSVPSSKKPPSLQDARRGPGRGTSVRRRTSFYLPKDAVKHLHVLSRTRAREVIEALLRKFLVVDDPRKFALFERAERHGQVYLRKLLDDEQPLRLRLLAGPSDKALSFVLKENDSGEVNWDAFSMPELHNFLRILQREEEEHLRQILQKYSYCRQKIQEALHACPLGLEHHHHHH | not soluble
20 | MRSLPIFPDLRAFLDWCARKGDLSRIAEPVSLRHETTAVASKILRGGGPVLRFESLRDTSATMPLVANLFGTRERVAAGLGLGLEQIPELGAFLAALRAPAPVAGMRDALSRWPQLQAALNTRAKIVRSAEAQEVVHEGAAVDLGMIPVPTCWPGDAGPLVTWPVVLTRPHGTSAEETLHYNAGVYRAQVIGRDRLIMRWLAHRGGAGHCRSWMRAGEPMPVALALGCDPALLLAAALPLPEQVSELTFSGVLRGARTPLVAGRTVPLMVPATAEIVVEGWVHPGDMAPEGPFGDHTGYYNSVEDFPVLRVSAITHRKDPLYLTTHTGRPPDEPSVIGEVFNDLAMPVFRQQIPEVKDLYLPPAACSYRIAIVSIDKRYPGQARRVMMALWGMLAQFSYTKMVIVVDEDINPRDWDDVAWAMATRMDPSRDVVLLEKTPMDYLDFASPEPGLAGKIGIDATNKIGPETHREWGEVMTQSPEAEAFADRLIAKLRIGALEHHHHHH | not soluble
